Measurements published in patent US20200164014A1, “MESENCHYMAL STEM CELL ATTRACTING AGENT” (Shiseido Company, Ltd., priority 2017, published 2020).

B1: IGFBP7: insulin-like growth factor binding protein 7, purchased protein, candidate aging factor (protein, UniProt Q16270 27-282, looked up)
Insulin-like growth …: SSSDTCGPCEPASCPPLPPLGCLLGETRDACGCCPMCARGEGEPCGGGGAGRGYCAPGMECVKSRKRRKGKAGAAAGGPGVSGVCVCKSRYPVCGSDGTTYPSGCQLRAASQRAESRGEKAITQVSKGTCEQGPSIVTPPKDIWNVTGAQVYLSCEVIGIPTPVLIWNKVKRGHYGVQRTELLPGDRDNLAIQTRGGPEKHEVTGWVLVSPLSKEDAGEYECHASNSQGQASASAKITVVDALHEIPVKKGEGAEL
B2: RSPO4: R-spondin family, member 4, purchased protein, candidate aging factor (protein, UniProt Q2I0M5 20-234, looked up)
R-spondin-4: LNRRKKQVGTGLGGNCTGCIICSEENGCSTCQQRLFLFIRREGIRQYGKCLHDCPPGYFGIRGQEVNRCKKCGATCESCFSQDFCIRCKRQFYLYKGKCLPTCPPGTLAHQNTRECQGECELGPWGGWSPCTHNGKTCGSAWGLESRVREAGRAGHEEAATCQVLSESRKCPIQRPCPGERSPGQKKGRKDRRPRKDRKLDRRLDVRPRQPGLQP

Test system: young fibroblasts
Assay: Addition of aging factor proteins to young fibroblasts, quantitative RT-PCR
Format: cell-based
Details: protein added at 10 μg/ml vs 0 μg/ml, cultured 2 days
Description: Dermal fibroblasts collected from the back skin of an adult were cultured in Dulbecco's Modified Eagle Medium supplemented with 10% FBS. As normal fibroblasts (young fibroblasts), cells with a culture period of less than 1 month and a Pdl<30 were used. The same cells were cultured for 3 months or more and slowly proliferating cells (having a doubling time of less than 0.5/week and a Pdl>50) were used as the senescent fibroblasts. Normal fibroblasts were seeded in the upper layer of a six-well Transwell system (Falcon; Franklin Lakes, N.J.) filled with Dulbecco's Modified Eagle Medium supplemented with 10% FBS to a density of 1250 cells/cm^2. Sub-constructed senescent fibroblasts and normal fibroblasts were each seeded in two wells of the lower layer of the Transwell system. After combining the upper layer and the lower layer of the Transwell system for 2 days under a humidified atmosphere at 37° C. and 5% CO2, the cells in the upper layer and the cells in the lower layer were recovered using Qiazole (Qiagen).
From the recovered cell lysate, RNA was extracted using an RNeasy Protect Kit (Qiagen) according to the product description and […] into cDNA using Superscript VILO (Invitrogen) according to the product description. Real time PCR was performed on LightCycler (Roche) using […] as an internal standard and using primer pairs for the following genes. The cycle threshold (Ct value) calculated using Lightcycler software ver. 3.5 was normalized for each sample GAPDH mRNA.
Proteins of the candidate aging factors (IGFBP 7 and RSPO 4) (purchased from Serotec, R&D SYSTEMS) were added to a medium for culturing young fibroblasts at concentrations of 0 μg/ml and 10 μg/ml, cultured for 2 days, and the cells were collected using Qiazole (Qiagen). The recovered cell lysate was examined for the expression levels of MMP1 and collagen in the same manner as described above for quantitative RT-PCR. IGFBP7 and RSPO4 reduced the expression of collagen and increased the expression of MMP1.

Molecule	expression of MMP1	expression of collagen
B1	increased	reduced
B2	increased	reduced
